These results are taken from patent US20220025032A1 (Novartis, published 2022).

Where two headings read alike, the source gives them in different places. Where only a bound is given, the exact number is not on record here.

In assay [1] the target is T1, Human BTC (human, UniProt P35070 32-111).
T1 construct: Soluble human BTC of the Biacore, ELISA, MSD and cell assays; also called human betacellulin; soluble human BTC
T1 sequence: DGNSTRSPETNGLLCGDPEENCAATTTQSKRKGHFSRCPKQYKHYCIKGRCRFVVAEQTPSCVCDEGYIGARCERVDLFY
As to the kind of experiment: cell-based inhibition of BTC binding to ErbB1.

The target of assay [2] is T1, Human BTC. As to the kind of experiment: cell-based inhibition of BTC binding to ErbB4.
The target in assay [3] is T1, Human BTC. Description: SPR Biacore T200, anti-Fab capture, antigen as analyte.
In the next assay the target is T2, Rabbit BTC (rabbit, UniProt G1SJ89 32-111).
T2 sequence: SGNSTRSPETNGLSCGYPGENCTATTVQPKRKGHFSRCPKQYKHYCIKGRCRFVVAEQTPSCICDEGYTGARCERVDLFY
Description: SPR (Biacore/ProteOn). (In SPR one partner is held on a chip, and binding of the other changes the refractive index at the surface.)

For a further assay, the target named is T3, Cyno BTC (cynomolgus, UniProt A0A2K5X5E5 32-111).
T3 construct: also called cynomolgus BTC
T3 sequence: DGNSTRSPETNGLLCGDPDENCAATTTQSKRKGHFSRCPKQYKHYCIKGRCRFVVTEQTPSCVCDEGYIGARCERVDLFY
Description: SPR (Biacore/ProteOn).

The target in another assay is T4, Rat BTC (rat, UniProt Q9JJM4 32-111).
T4 sequence: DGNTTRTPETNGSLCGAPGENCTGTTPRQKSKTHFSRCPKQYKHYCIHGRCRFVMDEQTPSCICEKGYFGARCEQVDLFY
Description: SPR (Biacore/ProteOn).

Another assay addresses T5, Mouse BTC (mouse, UniProt Q05928 32-111, limits assumed).
T5 sequence (looked up): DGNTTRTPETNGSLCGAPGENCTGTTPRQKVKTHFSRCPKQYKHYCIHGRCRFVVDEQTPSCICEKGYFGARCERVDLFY
As to the kind of experiment: SPR (Biacore/ProteOn).

Assay [4] has as its target T1, Human BTC. Description: SPR (Biacore/ProteOn).
In assay [5] the target is T1, Human BTC. Description: MSD-based inhibition of BTC binding to ErbB1.
The target of assay [6] is T6, Human BTC-avitag-biotin (human, UniProt P35070 32-111, biotin on the avitag).
T6 construct: also called biotin-BTC; soluble human BTC-avitag-biotin
T6 sequence: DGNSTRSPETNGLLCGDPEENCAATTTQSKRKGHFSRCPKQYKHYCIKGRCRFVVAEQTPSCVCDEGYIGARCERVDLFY
Description: flow cytometry: inhibition of biotin-BTC binding to HKB11 cells over-expressing ErbB4; y axis Fluorescent Intensity. As to the method: (§1) In order to assess potency of the Fabs and bispecific in neutralizing binding of BTC to its receptor Erb 1 or ErbB4, the following assay was performed. HKB11 over-expressing either ErbB1 or ErbB4 cells were plated 1×10⁵ cells/well. Cells were washed once with FACS buffer by spun down at 1200 rpm for 5 minutes and supernatant removed. Next, the Fab sample dilutions and BTC were prepared in FACS buffer. Human BTC-avitag-biotin was diluted to a fixed concentration of 15 nM. The test Fab samples were prepared at a starting concentration of 40 nM and titrated for 9 points at a serial dilution of 1:2. Both biotin-BTC and the test Fab samples are incubated for 30 minutes at room temperature. The pre-incubated samples were then added to the cell plate at 100 μl per well in duplicate and incubated for 1 hour on ice. The plate was then washed once in FACS buffer and spun down at 1200 rpm for 5 minutes and supernatant removed. After suspending the cell pellet with 100 μl/well of diluted secondary antibody streptavidin-Alexa Fluor488 (1:2000) in FACS buffer, the cells were then incubated for 60 min on ice. The cells were washed once with FACS buffer and re-suspended in 120 μl of FACS buffer for flow cytometric analysis.
(§2) Measurements were performed on Attune Flow Cytometry machine. Data were analysed using the Flow Jo software. The live cell populations analysed were gated in forward and side scattering (FSC-A/SSC-A dot plot). The interval gate was established on the control histogram, which was obtained with sample incubated in streptavidin-Alexa Fluor488 only, and subsequently, determined percent of positive binding events of cells carrying membrane-bound receptor ErbB1 or ErbB4 and biotin-BTC. The median of fluorescence intensity (MFI) value was also derived for the live cell population. MFI values were then used to calculate for percent inhibition of test sample and subsequently plotted in GraphPad Prism 7.03 using nonlinear regression (curve fit) model to generate IC50 value.
A general note: Flow cytometry measures light scatter and fluorescence of single cells or particles in a stream.

Assay [7] deals with T7, membrane-bound human BTC on 293F-hBTC cells (human, UniProt P35070 32-111).
T7 construct: the transfected construct is not described; also called membrane-anchored BTC
T7 sequence: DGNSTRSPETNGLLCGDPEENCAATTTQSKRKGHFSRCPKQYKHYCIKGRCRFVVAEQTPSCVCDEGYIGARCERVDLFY
Description: flow cytometry on 293F cells with membrane-bound human BTC; y axis % Pos Binding. As for the experimental part:
(§3) After washing the cells, the cells were dissociated using Versene at 37° C. The cells were washed with FACS buffer and plated at 100 μl in a 96 well plate using cells at 1×10⁶ cells/ml. Then 100 μl of a serial dilution of antibodies starting at 50 nM was used. The cells were incubated, washed and then treated with the secondary anti-human Fab-FITC antibody. The antibodies only bound to the cells expressing BTC. After which the cells were washed and analyzed on the Attune Flow Cytometry. All data analysis was carried out using Flow Jo software.

Assay [8] addresses T7, membrane-bound human BTC on 293F-hBTC …. As to the kind of experiment: cell-based or functional assay.
Assay [9] has as its target T1, Human BTC. As to the kind of experiment: cell-based or functional assay.
Assay [10] deals with T7, membrane-bound human BTC on 293F-hBTC …. Description: flow cytometry, 293F cells with BTC against 293F.
For assay [11], the target named is T1, Human BTC. As to the kind of experiment: MSD-based inhibition of BTC binding to ErbB4.
For assay [12], the target named is T6, Human BTC-avitag-biotin. As to the kind of experiment: flow cytometry: inhibition of biotin-BTC binding to HKB11 cells over-expressing ErbB1; y axis Fluorescent Intensity. As to the method:
as §1, §2

Assay [13] has as its target T7, membrane-bound human BTC on 293F-hBTC …. As to the kind of experiment: flow cytometry on 293F cells with membrane-bound human BTC; y axis % Pos Binding. As to the method: as §3
In FIG. 6A, Flow cytometry was used to assess the binding of NVS11 to membrane-bound BTC using an anti-human Fab antibody for detection.
This is another data set of the same source.

The next assay deals with T8, Human VEGF165 (human, UniProt P15692 27-191).
T8 construct: mature; biotinylated in the VEGFR2 ELISAs; also called human VEGF-A; VEGF-A
As to the kind of experiment: SPR Biacore T200, anti-Fab capture.

T8 sequence (P15692 other isoform, or with tags, fused parts or gaps): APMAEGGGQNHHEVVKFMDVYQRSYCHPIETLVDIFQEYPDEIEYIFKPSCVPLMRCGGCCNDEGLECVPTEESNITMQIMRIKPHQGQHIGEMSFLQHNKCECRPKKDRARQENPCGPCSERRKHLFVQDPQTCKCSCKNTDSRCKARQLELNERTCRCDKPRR

B1: NVS4 (Fab, V domains shown)
VH: QVQLLESGGGLVQPGGSLRLSCAASGFTFSRYWISWVRQAPGKGLEWVSYIDSTGTFINYADSVKGRFTISRDNSKNTLYLQMNSLRAEDTAVYYCARGGSLFDYWGQGTLVTVSS
VL: DIQMTQSPSSLSASVGDRVTITCRASQGIISYLGWYQQKPGKAPKLLIYAASSLQSGVPSRFSGSGSGTDFTLTISSLQPEDFATYYCQQYDALNTFGQGTKVEIKR
notes: also called NVS4 Fab; Fab NVS4
Turning to B1, the “Cell-based binding inhibition BTC/ErbB1” value with Human BTC [1] was over 90%. Also, in the assay with Human BTC [2], the “Cell-based binding inhibition BTC/ErbB4” value is over 90%. Moreover, the Kd is 0.0043 nM with Human BTC [3]; 0.001 nM in the assay with Rabbit BTC; 0.012 nM with Cyno BTC; 0.008 nM in the assay with Rat BTC; 0.005 nM with Mouse BTC; 0.005 nM with Human BTC [4]. Also, the “MSD-based binding inhibition BTC/ErbB1” value with Human BTC [5] was over 90%. Besides, the IC50 with Human BTC-avitag-biotin [6] turned out to be 1.8 nM; with Human BTC-avitag-biotin [12], 1.61 nM. Further, in [7], a half-maximal response (EC50) required 0.238 nM. The “Neutralization of juxtacrine signaling” value in assay [8] came to 87%. In addition, the “A431 pERK (IC50 in nM)” value with Human BTC [9] worked out at 0.49 nM. In the assay with Human BTC [9], the “ADR/Res pErbB3 (IC50 in nM)” value came to 6.1 nM. In the assay with Human BTC [9], this molecule gave an inhibition of 99.4%. The “Binding to membrane-anchored BTC (median, X above 293F)” value (“Binding to membrane-anchored BTC” below) in assay [10] is over 10 X above 293F. Besides, in the assay with Human BTC [11], the “MSD-based binding inhibition BTC/ErbB4” value is over 90%.

B2: NVS3 (Fab, V domains shown)
VH: QVQLLESGGGLVQPGGSLRLSCAASGFTFSSYAMSWVRQAPGKGLEWVSGLGHVGYTTYTDSVKGRFTISRDNSKNTLYLQMNSLRAEDTAVYYCARDYLDFGYYFDVWGQGTLVTVSS
VL: SYELTQPLSVSVALGQTARITCSGDKIGKKYVHWYQQKPGQAPVLVIYDDSDRPSGIPERFSGSNSGNTATLTISRAQAGDEADYYCQAWDMQSVVFGGGTKLTVLG
notes: also called Fab NVS3; anti-BTC Fab
With B2, the “Cell-based binding inhibition BTC/ErbB1” value with Human BTC [1] is over 90%. In addition, the EC50 in [13] stood at 0.322 nM. Also, in the assay with Human BTC [2], the “Cell-based binding inhibition BTC/ErbB4” value was over 90%. Further, in the assay with Human VEGF165, the binding result is “no binding”. Further, the Kd with Human BTC [3] was 0.0044 nM; in the assay with Rabbit BTC, 0.017 nM; with Cyno BTC, 0.0054 nM; in the assay with Rat BTC, 0.02 nM; with Mouse BTC, under 0.001 nM; with Human BTC [4], 0.0014 nM. Moreover, the “MSD-based binding inhibition BTC/ErbB1” value with Human BTC [5] was over 90%. The concentration for half-maximal inhibition (IC50) in the assay with Human BTC-avitag-biotin [6] came to 2.04 nM; in the assay with Human BTC-avitag-biotin [12] it was 1.81 nM. Moreover, the “Neutralization of juxtacrine signaling” value in assay [8] worked out at 99%. For the same molecule, in the assay with Human BTC [9], the “A431 pERK (column head: IC50 in nM; cell printed as percent)” value was over 90%. For the same molecule, in the assay with Human BTC [9], the “ADR/Res pErbB3 (IC50 in nM)” value was determined as 7.89 nM. Besides, in assay [10], the “Binding to membrane-anchored BTC” value was over 10 X above 293F. In addition, the “MSD-based binding inhibition BTC/ErbB4” value with Human BTC [11] was over 90%.

B3: NVS2 (Fab, V domains shown)
VH: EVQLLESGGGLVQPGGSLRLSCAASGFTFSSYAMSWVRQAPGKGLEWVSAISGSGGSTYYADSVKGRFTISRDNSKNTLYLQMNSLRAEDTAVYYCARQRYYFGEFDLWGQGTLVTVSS
VL: SYELTQPPSVSVSPGQTASITCSGDKLGDKYAYWYQQKPGQSPVLVIYQDSKRPSGIPERFSGSNSGNTATLTISGTQAEDEADYYCQAFDYLYSLGVFGGGTKLTVLG
notes: also called Fab NVS2; anti-BTC Fab
As to B3, in the assay with Human BTC [1], the “Cell-based binding inhibition BTC/ErbB1” value is over 90%. The same molecule had an EC50 in assay [13] of 0.256 nM. The “Cell-based binding inhibition BTC/ErbB4” value with Human BTC [2] was over 90%. For the same molecule, the binding result with Human VEGF165 is given as “no binding”. Besides, the Kd with Human BTC [3] is 0.0047 nM; with Rabbit BTC, 0.005 nM; in the assay with Cyno BTC it was 0.016 nM; in the assay with Rat BTC it was 0.021 nM; with Mouse BTC, 0.009 nM; in the assay with Human BTC [4] it was 0.014 nM. Besides, the “MSD-based binding inhibition BTC/ErbB1” value with Human BTC [5] is over 90%. The half-inhibitory concentration (IC50) was found to be 1.83 nM in the assay with Human BTC-avitag-biotin [6] and 1.73 nM in the assay with Human BTC-avitag-biotin [12]. In addition, in assay [8], the “Neutralization of juxtacrine signaling” value was found to be 90%. In the assay with Human BTC [9], the “A431 pERK (IC50 in nM)” value came out at 0.37 nM. In the assay with Human BTC [9], the “ADR/Res pErbB3 (IC50 in nM)” value worked out at 6.3 nM. The inhibition in the assay with Human BTC [9] stood at 99.7%. Besides, the “Binding to membrane-anchored BTC” value in [10] is over 10 X above 293F. The “MSD-based binding inhibition BTC/ErbB4” value with Human BTC [11] is over 90%.

One may read the Kd as a measure of binding affinity in units of concentration. Broadly, the IC50 is the concentration that gives 50% inhibition. A word on the EC50: it is the concentration needed to bring the measured effect to its halfway point. High values mean a less potent agent, low ones a more potent agent. What is called inhibition is the drop in the measured response relative to a control, in per cent. Low readings indicate a response near the control, high ones a response far below the control.
